From article PMC7654188 come the findings set out here.

For the assay, the target named is preassembled microtubule filaments (tubulin polymerised with Taxol). Kind of assay: co-sedimentation; microtubule spin-down assay (Cytoskeleton BK029): 5, 10 and 20 ug of COS1 lysate with or without Taxol-stabilised microtubule, room temperature 30 min, 60% glycerol cushion, 100,000 x g 40 min; pellet blotted with HA tag and alpha-tubulin antibodies.

For “HA-tagged CTTNBP2 D570Y (natural protein)”, the fold microtubule binding relative to WT protein lay within 2.5 to 4 fold.
